Laboratory results taken from patent publication US20050032221A1, “Dominant negative variants of methionine aminopeptidase 2 (MetAP2) and clinical uses thereof” (priority 2001, published 2005).

What was measured:
peptide substrate (MGMM) = assay: MetAP activity assay of immunopurified HA-tagged yeast MetAP2 with Met-Gly-Met-Met; type: biochemical; details: immunopurified HA-tagged enzyme from map1Δ; 2 mM Met-Gly-Met-Met
Method: […]. Approximately 2 μg of purified wild-type MetAP2 (WT) and MetAP2 (H174A) was separated on a 10% SDS-PAGE gel and visualized with coomassie blue staining. Specific activity for the wild-type MetAP2 was 11±0.5 U/mg.
The purification of HA-tagged wild-type and mutant yeast MetAP2 from a yeast map1Δ strain (Klinkenberg et al., Arch. Biochem. Biophys. 347:193-200, 1997) was performed as previously described (Li and Chang, 1995) with slight modifications. A 1-liter yeast culture was grown aerobically at 30° C. in SG/Leu^− medium. Cells were collected at an OD600˜1-2 by centrifugation at 1500×g for 5 min. The pellet was rinsed with buffer XL (10 mM Hepes, pH 7.4; 1.5 mM MgCl2, 10% Glycerol [v/v]) plus 100 mM NaCl and fresh protease inhibitors (1 μg/ml aprotinin, 1 μg/ml leupeptin, 0.7 μg/ml pepstatin A, 1 mM phenylmethylsulfonyl fluoride). Cells were disrupted by vortexing (5 cycles of 1 min vortexing, 1 min on ice) with 0.5-mm acid-washed glass beads (Biospec Products, Inc.,). The lysate was then cleared at 10,000×g for 20 min at 4° C. Cleared lysate was applied to a Protein-Sepharose G column (Pharmacia) previously rinsed and pre-equilibrated with buffer XL and an anti-hemagglutinin epitope ([…]; SEQ ID NO:23) monoclonal antibody (BabCO). After loading, the column was washed with buffer XL until OD280<0.01. […]

yeast map1Δ strain = assay: Yeast growth assay, map1Δ, expression under GAL1 promoter; type: cell-based, yeast (S. cerevisiae); details: galactose plates, 4 days at 30° C.
Method: A haploid yeast map1Δ strain was transformed to leucine prototrophy with p425GAL1/MAP2 wild-type (WT), p425GAL1/map2 (H174A), or p425GAL1 vector alone (V). Each strain was grown to mid-logarithmic phase at 30° C. in minimal synthetic raffinose medium lacking leucine. Approximately 2×10^5 cells (ABS600) were then streaked onto minimal synthetic plates lacking leucine and supplemented with (A) glucose or (B) galactose. Plates were incubated for 4 days at 30° C.
A haploid yeast map1Δ strain was transformed to leucine prototrophy with p425GAL1/MAP2 wild-type (WT), p425GAL1/map2 ([…]), p425GAL1/map2 (Δ2-57/H174A) or p425GAL1 vector alone (V). Each strain was grown to mid-logarithmic phase at 30° C. in minimal synthetic raffinose medium lacking leucine. […]
For relative growth comparison, strains were grown to mid-logarithmic phase in 5 ml of 2% raffinose minimal media lacking leucine and ˜2×10^5 cells (ABS600) were streaked onto SD/Leu^− or SG/Leu^− plates, then incubated for 4 days at 30° C. For quantitative comparison, a growth curve was obtained (FIG. 4). […] The ABS600 of each 1 mL culture was measured and diluted to an ABS600 of 0.2 in 5 mL of SG/Leu^−. Each 5 mL culture was then grown aerobically at 30° C. and the ABS600 was measured in triplicate at one-hour intervals.

B1: wild-type MetAP2: wild-type yeast MetAP2 with N-terminal hemagglutinin tag (SEQ ID NO:14) (protein, listed as Saccharomyces sp.)
chain: MTDAEIENSPASDLKELNLENEGVEQQDQAKADESDPVESKKKKNKKKKKKKSNVKKIELLFPDGKYPEGAWMDYHQDFNLQRTTDEESRYLKRDLERAEHWNDVRKGAEIHRRVRRAIKDRIVPGMKLMDIADMIENTTRKYTGAENLLAMEDPKSQGIGFPTGLSLNHCAAHFTPNAGDKTVLKYEDVMKVDYGVQVNGNIIDSAFTVSFDPQYDNLLAAVKDATYTGIKEAGIDVRLTDIGEAIQEVMESYEVEINGETYQVKPCRNLCGHSIAPYRIHGGKSVPIVKNGDTTKMEEGEHFAIETFGSTGRGYVTAGGEVSHYARSAEDHQVMPTLDSAKNLLKTIDRNFGTLPFCRRYLDRLGQEKYLFALNNLVRHGLVQDYPPLNDIPGSYTAQFEHTILLHAHKKEVVSKGDDYGKMRFQMASSLGIILL
modifications: N-terminal HA tag; Yeast MetAP2
- Specific activity (peptide substrate (MGMM)): 11±0.5 U/mg
- colony size / growth relative to map1Δ with vector alone (yeast map1Δ strain): largest observed
